The numbers were not newly measured in article PMC11677424, “Early-Stage IM Treatment with the Host-Derived Immunostimulant CPDI-02 Increases Curative Protection of Healthy Outbred Mice Against Subcutaneous Infection with Community-Acquired Methicillin-Resistant Staphylococcus aureus USA300” (Pharmaceutics, 2024), which cites them from elsewhere.

The subject of data set [1] is primary human mononuclear phagocytes (MPs). To be noted: primary human MPs; cited from earlier work. The source says:
(§1) Complement Peptide-Derived Immunostimulant-02 (CPDI-02) (formerly EP67) is a novel, second-generation host-derived decapeptide agonist of […] (C5) Receptor 1 (C5aR1/C5a1R/CD88), which is based on the C-terminal pharmacophore of human Complement Peptide C5a (hC5a).

Data set [2] has as its system primary human neutrophils (NPs). To be noted: cited from earlier work.
Description: as §1

B1: hC5a: human Complement Peptide C5a, the parent molecule of CPDI-02 (protein, UniProt P01031 678-751, looked up)
C5a anaphylatoxin: TLQKKIEEIAAKYKHSVVKKCCYDGACVNNDETCEQRAARISLGPRCIKAFTECCVVASQLRANISHKDMQLGR
modifications: C5a anaphylatoxin
With B1, the concentration for a half-maximal effect (EC50) in data set [1] and in data set [2] was approximately 7 nM each time.
